Assay [1] has as its target β-amyloid peptide 1-40 (UniProt P05067). Briefly: cell-based or functional assay.
Assay [2] addresses biotinylated peptide composed of amino acids 1-16 of the Aβ peptide (UniProt P05067). The assay is described as follows: phage ELISA screen of colonies after biopanning, negative control.

For “10D5 (monoclonal antibody against the N terminus of Aβ peptide)”, in assay [1], the Percent Aggregation (ThT emission at 485 nm), plus 1 µM 10D5 amounted to 61.4% and the Percent Disaggregation (ThT), plus 1 µM 10D5 was found to be 38.6%. For helper phage M13KO7, in assay [2], the absorbance at 492 nm (OD) lay within 0.003 to 0.005 OD.

The values above are taken from patent US20090186027A1.
